In publication PMC11107207, “Utility of protein–protein binding surfaces composed of anti-parallel alpha-helices and beta-sheets selected by phage display” (The Journal of Biological Chemistry, 2024):

Molecular target: T1, APCDD1 bait fused to the C terminus of Fc (mouse, UniProt Q3U128 27-492)
T1 construct: mouse APCDD1, entire extracellular domain, fused to the C terminus of Fc; secreted with the mouse FZD8 signal peptide; also called Fc-bait; source: HEK293T, transiently transfected, serum-free conditioned medium; captured on proteinG; not shown: Fc (human IgG1), N-terminal, kept
Test: SPR; Biacore, single-cycle kinetics/affinity, five-point dose response; bait-Fc on a proteinG chip; CC4-MBP in the mobile phase; done at Cayman Chemical
Settings: both partners purified

T1 sequence (Q3U128 27-492): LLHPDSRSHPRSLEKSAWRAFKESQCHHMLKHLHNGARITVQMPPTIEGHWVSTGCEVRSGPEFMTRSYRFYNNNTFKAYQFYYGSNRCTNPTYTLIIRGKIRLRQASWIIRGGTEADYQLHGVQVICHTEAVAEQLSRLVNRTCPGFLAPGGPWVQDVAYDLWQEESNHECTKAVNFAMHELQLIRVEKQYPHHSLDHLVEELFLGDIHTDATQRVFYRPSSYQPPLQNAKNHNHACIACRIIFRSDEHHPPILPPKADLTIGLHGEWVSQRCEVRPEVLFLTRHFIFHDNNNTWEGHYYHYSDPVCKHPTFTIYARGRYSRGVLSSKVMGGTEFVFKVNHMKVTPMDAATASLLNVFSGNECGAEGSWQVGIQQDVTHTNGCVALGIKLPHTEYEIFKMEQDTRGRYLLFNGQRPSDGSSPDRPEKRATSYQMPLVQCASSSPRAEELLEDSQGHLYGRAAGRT

B1: WT CC4-MBP (domain or fragment, mouse)
chain: PMRNPTDSLYCCDRAEDHACQNACKRILMSKKTEMEIVDGLIEGCKTQPLPQDPLWQCFLESSQS
notes: mouse RECK, CC domain 4 (CC4), a 4-helix bundle of 65 amino acids; also called RECK(CC4); source: E. coli SHuffle, purified (Ni-NTA)
For B1, the Kd was > 50 µM.
